From patent publication US20080138790A1 (priority 2004, published 2008)
Like-named read-outs stand apart in the source and are kept apart here.

Key:
[1] = tested on: rat; details: cited from earlier work
[2] = Total Hb over time of stroma free hemoglobin with/without solvent-detergent; format: physicochemical
Protocol: (§1) The solvent-detergent treatment was performed at a concentration of 1% Tween 80 […] and 0.3% Tri-N-Butyl Phosphate […]. […] All testing was performed at neutral pH in phosphate buffered saline.
(§2) After treatment, the mixture was centrifuged at 8,000 rpm (4,600 g) for 6 minutes at room temperature.

[3] = Percentage Met-Hb over time of stroma free hemoglobin with/without solvent-detergent; format: physicochemical
Protocol: as §1, §2

[4] = in vivo; cited from earlier work

CCCO [1-Propanol]
LD50 (oral-rat) ([1]; in vivo, po): 1900 mg/kg

CCC(C)=O [2-Butanone]
LD50 (oral-rat) ([1]; oral): 2700 mg/kg

CC(C)O [2-Propanol]
LD50 (oral-rat) ([1]; in vivo, po): 5000 mg/kg

CC#N [Acetonitrile]
LD50 (oral-rat) ([1]; oral): 3800 mg/kg

COCCOC [Dimethoxy- ethane (glyme), Dimethoxy- ethane]
LD50 (oral-rat) ([1]; oral): 10000 mg/kg

CCOC(C)=O [Ethyl acetate]
LD50 (oral-rat) ([1]; in vivo, po): 11000 mg/kg

CO [Methanol]
LD50 (oral-rat) ([1]; oral): 5600 mg/kg

SFH: stroma free hemoglobin prepared as in Example 1, 8.6-9.0 g % in PBS
Total Hb ([2]; 2-6° C., 0 hrs): 8.6 g %
Total Hb ([2]; 2-6° C., 1 hrs): 8.5 g %
Total Hb ([2]; 2-6° C., 2 hrs): 8.55 g %
Total Hb ([2]; 2-6° C., 3 hrs): 8.65 g %
Total Hb ([2]; 2-6° C., 4 hrs): 8.65 g %
Total Hb ([2]; 2-6° C., 5 hrs): 8.55 g %
Total Hb ([2]; 21-23° C., 0 hrs): 8.5 g %
Total Hb ([2]; 21-23° C., 1 hrs): 8.55 g %
Total Hb ([2]; 21-23° C., 2 hrs): 8.55 g %
Total Hb ([2]; 21-23° C., 3 hrs): 8.65 g %
Total Hb ([2]; 21-23° C., 4 hrs): 8.6 g %
Total Hb ([2]; 21-23° C., 5 hrs): 8.55 g %
Percentage Met-Hb ([3]; 2-6° C., 0 hrs): 2.15%
Percentage Met-Hb ([3]; 2-6° C., 1 hrs): 2.2%
Percentage Met-Hb ([3]; 2-6° C., 2 hrs): 2.25%
Percentage Met-Hb ([3]; 2-6° C., 3 hrs): 2.15%
Percentage Met-Hb ([3]; 2-6° C., 4 hrs): 2.1%
Percentage Met-Hb ([3]; 2-6° C., 5 hrs): 2.25%
Percentage Met-Hb ([3]; 21-23° C., 0 hrs): 2.2%
Percentage Met-Hb ([3]; 21-23° C., 1 hrs): 2.4%
Percentage Met-Hb ([3]; 21-23° C., 2 hrs): 2.45%
Percentage Met-Hb ([3]; 21-23° C., 3 hrs): 2.45%
Percentage Met-Hb ([3]; 21-23° C., 4 hrs): 2.6%
Percentage Met-Hb ([3]; 21-23° C., 5 hrs): 2.8%

conjugate of hemoglobin (with a molecular weight of 64,000) and dextran (having a molecular weight of 20,000): hemoglobin conjugated to dextran of molecular weight 20,000, reported by Blumenstein et al.
clearance from the circulation and through the kidneys [4]: cleared slowly from the circulation and negligibly through the kidneys
